Here are results for 2 molecules from patent publication US20090131638A1 (Eli Lilly, published 2009).

The target of test [1] is T1, recombinant human GDF-11 (human, UniProt O95390 299-407).
T1 sequence (looked up): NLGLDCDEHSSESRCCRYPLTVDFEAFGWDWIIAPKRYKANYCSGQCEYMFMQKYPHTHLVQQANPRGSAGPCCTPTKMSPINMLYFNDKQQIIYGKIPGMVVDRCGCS
Nature of the test: cell-based or functional assay.

Test [2] addresses T2, human mature myostatin (dimeric form) (human, UniProt O14793 267-375).
T2 sequence: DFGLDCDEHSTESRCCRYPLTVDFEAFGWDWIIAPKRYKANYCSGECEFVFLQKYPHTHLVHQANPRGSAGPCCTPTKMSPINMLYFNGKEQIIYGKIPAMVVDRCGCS
Nature of the test: cell-based or functional assay.

Test [3] concerns the target T2, human mature myostatin (dimeric form). Nature of the test: KINEXA kinetic assay, 2 pM antibody mixed with 20 pM GDF-8. The protocol:
(§1) Binding affinity measurements for full-length monoclonal antibodies of the invention are determined using a Sapidyne KINEXA assay. NHS-activated fast-flow sepharose beads (GE Healthcare) are pre-coated with […] and blocked with 10 mg/ml BSA in 1 M Tris-HCl, pH 8.0. Then 2 pM, 4 pM, 40 pM of an antibody of the invention (e.g., 3-74/C1E4) is incubated with various concentration (e.g., 2.4 pM to 10 nM, serial dilutions) of myostatin in running buffer (PBS, 0.005% (v/v) Tween-20 and 1 mg/ml ovalbumin) for 10 hours at room temperature. […] The amount of bead-bound antibody is then quantified by passing a solution of fluorescent (Cy5) labeled goat ant-human Fc antibody (Jackson Immuno Research) diluted 1:4000 in running buffer over the beads. The measured fluorescence signal is proportional to the concentration of free antibody at equilibrium. Each concentration of myostatin is measured in duplicate. […]
(§2) The association rate constant (kₒₙ) for GDF-8 binding is also determined using a Sapidyne KINEXA assay. […] The dissociation rate constant (koff) is calculated using the expression koff=KD×kₒₙ. Full-length monoclonal antibody 3-74/C1E4 (operably linked to an IgG₄ Fc region) was measured using the described assay, the results obtained are listed below in Table 3.

Test [4] shares this target. Nature of the test: KINEXA, calculated as KD x kon. The protocol: as §1, §2
Test [5] has the same target. Nature of the test: KINEXA equilibrium assay, antibody and myostatin in solution, room temperature. The protocol: Binding affinity measurements for full-length monoclonal antibodies of the invention are determined using a Sapidyne KINEXA assay. NHS-activated fast-flow sepharose beads (GE Healthcare) are pre-coated with […] and blocked with 10 mg/ml BSA in 1 M Tris-HCl, pH 8.0. Then 2 pM, 4 pM, 40 pM of an antibody of the invention (e.g., 3-74/C1E4) is incubated with various concentration (e.g., 2.4 pM to 10 nM, serial dilutions) of myostatin in running buffer (PBS, 0.005% (v/v) Tween-20 and 1 mg/ml ovalbumin) for 10 hours at room temperature. To determine the free antibody present at equilibrium, each sample is passed through the myostatin-coated beads. The amount of bead-bound antibody is then quantified by passing a solution of fluorescent (Cy5) labeled goat ant-human Fc antibody (Jackson Immuno Research) diluted 1:4000 in running buffer over the beads. The measured fluorescence signal is proportional to the concentration of free antibody at equilibrium. Each concentration of myostatin is measured in duplicate. The equilibrium dissociation constant (KD) is obtained from non-linear regression of the competition curves using a multiple-curve, one-site homogeneous binding model (KINEXA software).

B1: Fab 3-74/C1E4 (Fab, V domains shown)
VH: EVQLVESGGGLVQPGGSLRLSCAASGLTFSRYPMSWVRQAPGKGLEWVSAITSSGGSTYYSDTVKGRFTISRDNAKNTLYLQMNSLRAEDTAVYYCARLPDYWGQGTLVTVSS
VL: EIVLTQSPGTLSLSPGERATLSCRASSSVSSSYLHWYAAKPGQAPRLLIYSTSNLVAGIPDRFSGSGSGTDFTLTISRLEPEDFAVYYCQHYSGYHFTFGGGTKVEIK
Consider B1, for which, in test [1], the “IC50 GDF11 (GDF-11/SBE luciferase reporter assay, 293E cells)” value was found to be 4 nM. In test [2], the “IC50 GDF8 (myostatin/SBE luciferase reporter assay, 293E cells)” value worked out at 1 nM.

B2: Full-length monoclonal antibody 3-74/C1E4 (operably linked to an IgG4 Fc region) (antibody, V domains shown)
VH: EVQLVESGGGLVQPGGSLRLSCAASGLTFSRYPMSWVRQAPGKGLEWVSAITSSGGSTYYSDTVKGRFTISRDNAKNTLYLQMNSLRAEDTAVYYCARLPDYWGQGTLVTVSS
VL: EIVLTQSPGTLSLSPGERATLSCRASSSVSSSYLHWYAAKPGQAPRLLIYSTSNLVAGIPDRFSGSGSGTDFTLTISRLEPEDFAVYYCQHYSGYHFTFGGGTKVEIK
notes: also called Mab 3-74/C1E4
B2 yielded an on-rate constant (kon) in test [3] of 1.49e+06 M⁻¹ s⁻¹. Besides, the koff in test [4] is 2.08e-06 s⁻¹. For the same molecule, in test [5], binding was characterised by a dissociation constant (Kd) of 0.00139 nM.
